US9328139B2, “Cyclin based inhibitors of CDK2 and CDK4” (University of South Carolina, priority 2010, dated 2016)
Like-named read-outs stand apart in the source and are kept apart here.

What was measured:
[1] = tested on: retinoblastoma (Rb)-positive tumor cells; conditions: cited from earlier work
CDK4/Cyclin D1 = molecular target: T1, CDK4/Cyclin D1 (Homo sapiens, UniProt P24385); assay: CDK4/Cyclin D1 in vitro kinase assay (32P filter capture, GST-Rb substrate); format: biochemical
T1 construct: performed using full-length recombinant CDK2/cyclin A2 and CDK4/Cyclin D1; GST (N); purchased SignalChem, Richmond, Canada; host or cells: Sf9 insect cells (baculovirus)
T1 sequence (P24385 whole entry): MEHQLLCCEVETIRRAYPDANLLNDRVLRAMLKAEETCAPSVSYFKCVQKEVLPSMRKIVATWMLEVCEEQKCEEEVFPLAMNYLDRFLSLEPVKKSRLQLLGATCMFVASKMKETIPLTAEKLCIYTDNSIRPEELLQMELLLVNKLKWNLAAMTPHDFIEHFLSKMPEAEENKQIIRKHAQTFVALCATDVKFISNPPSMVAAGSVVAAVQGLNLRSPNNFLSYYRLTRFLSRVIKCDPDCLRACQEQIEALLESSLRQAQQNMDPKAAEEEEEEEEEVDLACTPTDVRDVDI
T1 sequence (P11802 whole entry partner): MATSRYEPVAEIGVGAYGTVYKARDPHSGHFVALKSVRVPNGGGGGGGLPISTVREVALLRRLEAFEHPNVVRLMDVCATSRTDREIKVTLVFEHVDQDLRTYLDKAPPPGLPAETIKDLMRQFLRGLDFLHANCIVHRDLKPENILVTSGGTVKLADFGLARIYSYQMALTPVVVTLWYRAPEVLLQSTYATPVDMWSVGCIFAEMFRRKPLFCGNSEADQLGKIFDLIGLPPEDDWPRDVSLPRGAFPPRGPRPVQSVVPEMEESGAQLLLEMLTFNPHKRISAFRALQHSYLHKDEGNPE
Method: CDK2/Cyclin A2 and CDK4/Cyclin D1 kinase assays were performed using full-length recombinant CDK2/cyclin A2 and CDK4/Cyclin D1 co-expressed by baculovirus in Sf9 insect cells using an N-terminal GST tag on both proteins. […] The [^32P]-ATP Assay cocktail was prepared in a designated radioactive working area by adding 150 ul of 10 mM ATP stock solution, 100 ul[^32P]-ATP (1 mCi/100 ul), 5.75 ml of kinase assay buffer I. 10 mM ATP Stock Solution was prepared by dissolving 55 mg of ATP in 10 ml of kinase assay buffer I. Store 200 μl aliquots at −20° C. […] The reaction was initiated by the addition of 5 μl [^32P]-ATP assay cocktail bringing the final volume up to 25 μl and incubating the mixture in a water bath at 30° C. for 15 minutes. After the incubation period, the reaction was terminated by spotting 20 μl of the reaction mixture onto individual pre-cut strips of phophocellulose P81 paper. The pre-cut P81 strip was air-dried and sequentially washed in a 1% phosphoric acid solution with constant gentle stirring. Radioactivity on the P81 paper was counted in the presence of scintillation fluid on a scintillation counter. […]
Activities of peptides previously tested against CDK2A and CDK4D were determined using this assay format.

Compound	cell cycle effect [1]	activity in the CDK4/cyclin D1 kinase assay (in words) (CDK4/Cyclin D1)	activity in the CDK4/cyclin D1 kinase assay (in words) (CDK4/Cyclin D1; listed as p21 X8 derivative)
CC(=O)c1c(C)c2cnc(Nc3ccc(N4CCNCC4)cn3)nc2n(C2CCCC2)c1=O [PD0332991]	G1 arrest		
HAKRRLIX8: HAKRRLIX with X8 = 4-pyridylalanine, SEQ ID NO: 24		no observable activity	loses all activity
